Literature values as cited in PMC3485249.

Biological target: Pygopus PHD PHD (Homo sapiens) (UniProt Q9Y3Y4)

Kd: 1 µM
Substance: Pygopus PHD PHD (from UniProt Q9Y3Y4)
